Substitutions are numbered along the chain they refer to. Numbers in names are those of the source.

We go through five molecules from article PMC9190012, “Heparin activation of protein Z-dependent protease inhibitor (ZPI) allosterically blocks protein Z activation through an extended heparin-binding site” (The Journal of Biological Chemistry, 2022).

Holding throughout (assay type): biochemical
Assay [1] concerns the target T1, FXa (Homo sapiens, UniProt P00742).
T1 construct: purchased Enzyme Research Laboratories
Nature of the assay: Unaccelerated ZPI–FXa reactions: kinetics and stoichiometry of inhibition. Conditions: for ka,app: absence of PZ, 2.5 mM CaCl2, pH 7.4, 25 °C. Here is the method:
(§1) Apparent second-order rate constants for unaccelerated and H50-accelerated ZPI–FXa reactions were measured in the absence and presence of the optimal H50 concentration under pseudo–first-order conditions by analyzing full ZPI–FXa reaction progress curves over the ZPI concentration range of 10 to 900 nM with ∼0.5 nM FXa. Full reaction progress curves were also measured for ZPI–FXa reactions in the presence of PZ equimolar with ZPI, 25 μM lipid, and 5 mM CaCl2, as a function of the ZPI concentration in the range of 10 to 40 nM. Identical reaction mixtures were quenched at varying reaction times with substrate, and the time course of protease inactivation was measured from the decrease in initial rates of substrate hydrolysis. The first-order rate of decrease in protease activity with time was computer fit by a single exponential decay function with a nonzero end point and kobs obtained from the fitted exponential decay constant. Apparent second-order association rate constants (ka,app) were obtained from the slopes of linear plots of kobs versus the ZPI concentration according to the equation, kobs=kd+ka,app × [ZPI]0
(§2) In which kd represents the rate constant for ZPI–FXa complex dissociation and [ZPI]o is the total ZPI concentration. kd was fixed at the experimentally determined value of 10^−4 s^−1 for WT and ZPI mutants as described ([18]).
(§3) Fixed concentrations of FXa (50–100 nM FXa) were reacted with increasing concentrations of ZPI, ranging from a approximately threefold to sevenfold molar excess, in the absence of cofactors or in the presence of either 1 μM H50 or PZ equimolar with ZPI, 25 μM lipid, and 5 mM CaCl2, in kinetics buffer at 25 °C in reaction volumes of 50 μl. After allowing sufficient time to reach a reaction end point, based on measured second-order associate rate constants (∼5–30 min), remaining proteolytic activity was measured by reacting an aliquot (5–20 μl) of the reaction mixtures with 1 ml of 100 μM Spectrozyme fXa (American Diagnostica) containing 50 μg/ml Polybrene and 5 mM EDTA and monitoring the rate of absorbance change at 405 nm. The apparent SI was determined from the fitted abscissa intercept of a linear plot of residual protease activity against the molar ratio of inhibitor to protease ([18]). Because the ZPI–PZ complex dissociates to a small extent over the reaction time, apparent SIs depend on the time of incubation. To correct for such complex dissociation, apparent SIs were multiplied by the factor, exp (−kd × t), where kd is the measured complex dissociation rate constant of 10^−4 s^−1 and t the fixed reaction time. Simulations verified the validity of this correction for small extents of dissociation. Reported SIs are average values of at least two independent measurements at different reaction times.

The target in assay [2] is T1, FXa. Nature of the assay: PZ-accelerated ZPI–FXa reactions: kinetics and stoichiometry of inhibition. The following applies: for PZ enhancement: ratio of PZ-accelerated to unaccelerated ka,app × SI; for SI / ka,app × SI / ka,app × SI relative to WT: PZ-accelerated; for ka,app: equimolar PZ, 25 μM phospholipid, 5 mM CaCl2, pH 7.4, 25 °C. Here is the method: as §1, §2, §3

Assay [3] concerns the target T1, FXa. As to the kind of experiment: H50 heparin-accelerated ZPI–FXa reactions: kinetics and stoichiometry of inhibition. Conditions: for SI / ka,app × SI / ka,app × SI relative to WT: 1 μM H50; for ka,app: 1 μM H50, 2.5 mM CaCl2, pH 7.4, 25 °C; for H50 rate enhancement: ratio of heparin-accelerated to unaccelerated ka,app × SI. Here is the method:
Heparin accelerating effects on the kinetics of ZPI–FXa reactions were evaluated as a function of heparin concentration under pseudo–first-order conditions (i.e., with a large molar excess of inhibitor over protease) by incubating reaction mixtures of 100 μl containing 70 nM ZPI and ∼0.5 nM FXa in the absence or presence of varying levels of H50 ranging from 10^−9 to 10^−4 M in 20 mM Tris buffer (pH 7.4), 0.1 M NaCl, 0.1% PEG 8000, 0.1 mg/ml BSA, and 2.5 mM CaCl2 at 25 °C for reaction times of 2 to 5 min. Reactions were quenched by adding 1 ml of 50 μM Pefafluor FXa substrate (Centerchem, Inc) containing 50 μg/ml polybrene and 5 mM EDTA. The initial linear rate of substrate hydrolysis was monitored at an excitation wavelength of 380 nm and an emission wavelength of 440 nm. The observed pseudo–first-order rate constant for reactions (kobs) was calculated from the equation, kobs=In([vo-v∞]/[vt-v∞])/t
where vt and v∞ are the initial velocities of protease hydrolysis of the substrate after reaction with ZPI for the fixed reaction time and after reaching the reaction end point, respectively, vo is the velocity measured in control reactions without ZPI, and t is the fixed reaction time. The dependence of kobs on heparin concentration was computer fit by nonlinear least squares analysis by the ternary complex bridging model equation ([10]).
as §1, §2
as §3, with “Simulations verified the validity of this correction for small extents of dissociation. Reported SIs are average values of at least two independent measurements at different reaction times.” left out

T1 sequence (P00742 235-488 limits assumed): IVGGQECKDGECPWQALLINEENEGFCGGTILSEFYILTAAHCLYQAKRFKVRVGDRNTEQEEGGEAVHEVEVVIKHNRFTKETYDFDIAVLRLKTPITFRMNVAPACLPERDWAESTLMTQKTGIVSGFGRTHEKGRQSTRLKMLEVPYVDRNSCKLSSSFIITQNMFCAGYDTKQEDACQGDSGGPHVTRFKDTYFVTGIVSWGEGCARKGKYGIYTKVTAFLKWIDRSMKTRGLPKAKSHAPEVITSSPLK
T1 sequence (P00742 41-179 limits assumed): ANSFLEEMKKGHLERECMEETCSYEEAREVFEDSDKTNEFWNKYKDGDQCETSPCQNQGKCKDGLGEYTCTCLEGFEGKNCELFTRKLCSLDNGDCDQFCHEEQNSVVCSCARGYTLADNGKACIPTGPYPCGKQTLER

B1: D293A: ZPI mutant in the PZ-binding site hot spot residue (protein, UniProt Q9UK55 22-444, looked up, variant D293A)
Protein Z-dependent protease …: LAPSPQSPETPAPQNQTSRVVQAPKEEEEDEQEASEEKASEEEKAWLMASRQQLAKETSNFGFSLLRKISMRHDGNMVFSPFGMSLAMTGLMLGATGPTETQIKRGLHLQALKPTKPGLLPSLFKGLRETLSRNLELGLTQGSFAFIHKDFDVKETFFNLSKRYFDTECVPMNFRNASQAKRLMNHYINKETRGKIPKLFDEINPETKLILVDYILFKGKWLTPFDPVFTEVDTFHLDKYKTIKVPMMYGAGKFASTFDKNFRCHVLKLPYQGNATMLVVLMEKMGDHLALEAYLTTDLVETWLRNMKTRNMEVFFPKFKLDQKYEMHELLRQMGIRRIFSPFADLSELSATGRNLQVSRVLQRTVIEVDERGTEAVAGILSEITAYSMPPVIKVDRPFHFMIYEETSGMLLFLGRVVNPTLL
As for B1, in the assay with FXa [1], the SI was 2.6 ± 0.1 moles ZPI/mole FXa, the “ka,app × SI” value was 1.1 ± 0.1 × 10^4 M^−1 s^−1, the “ka,app × SI relative to WT” value is listed as “(0.69)” and the “ka,app” value is given as 4.1 ± 0.2 × 10^3 M^−1 s^−1. Besides, in the assay with FXa [2], the PZ enhancement result was “greatly abrogated the acceleration”. Also, in the assay with FXa [3], the SI was 1.7 ± 0.1 moles ZPI/mole FXa, the “ka,app × SI” value is reported as 8.5 ± 0.6 × 10^5 M^−1 s^−1, the “ka,app × SI relative to WT” value is reported as “(0.71)” and the “ka,app” value was 5.0 ± 0.2 × 10^5 M^−1 s^−1.

B2: K260A/R263A: ZPI helix H site double mutant (protein, UniProt Q9UK55 22-444, looked up, variant K260A R263A)
Protein Z-dependent protease …: B1 Protein Z-dependent protease … with K260A, R263A, A293D
For B2, in the assay with FXa [1], the SI is 2.4 ± 0.5 moles ZPI/mole FXa, the “ka,app × SI” value is reported as 1.3 ± 0.4 × 10^4 M^−1 s^−1, the “ka,app × SI relative to WT” value is “(0.81)” and the “ka,app” value was 5.4 ± 0.3 × 10^3 M^−1 s^−1. In addition, in the assay with FXa [2], the SI came out at 2.6 ± 0.3 moles ZPI/mole FXa, the “ka,app × SI” value was 1.5 ± 0.2 × 10^7 M^−1 s^−1, the “ka,app × SI relative to WT” value was “(0.34)” and the “ka,app” value is recorded as 5.6 ± 0.2 × 10^6 M^−1 s^−1. The PZ enhancement with FXa [2] came to 1153. Also, in the assay with FXa [3], the SI came to 2.5 ± 0.4 moles ZPI/mole FXa, the “ka,app × SI” value was 2.9 ± 0.8 × 10^5 M^−1 s^−1, the “ka,app × SI relative to WT” value is reported as “(0.24)” and the “ka,app” value was 1.2 ± 0.1 × 10^5 M^−1 s^−1. Moreover, the H50 rate enhancement with FXa [3] was around 22 fold.

B3: R305A: ZPI helix H site mutant (protein, UniProt Q9UK55 22-444, looked up, variant R305A)
Protein Z-dependent protease …: B1 Protein Z-dependent protease … with A293D, R305A
For the molecule B3, in the assay with FXa [1], the SI is 2.4 ± 0.2 moles ZPI/mole FXa, the “ka,app × SI” value is recorded as 1.8 ± 0.2 × 10^4 M^−1 s^−1, the “ka,app × SI relative to WT” value is given as “(1.1)” and the “ka,app” value is listed as 7.3 ± 0.4 × 10^3 M^−1 s^−1. For the same molecule, in the assay with FXa [2], the SI was 3.3 ± 0.1 moles ZPI/mole FXa, the “ka,app × SI” value is on record as 3.2 ± 0.4 × 10^7 M^−1 s^−1, the “ka,app × SI relative to WT” value is reported as “(0.73)” and the “ka,app” value was 9.8 ± 1.0 × 10^6 M^−1 s^−1. Moreover, in the assay with FXa [2], the PZ enhancement was found to be 1778. In the assay with FXa [3], the SI is 1.8 ± 0.1 moles ZPI/mole FXa, the “ka,app × SI” value was 5.3 ± 0.9 × 10^5 M^−1 s^−1, the “ka,app × SI relative to WT” value is given as “(0.44)” and the “ka,app” value was 2.9 ± 0.3 × 10^5 M^−1 s^−1. Also, the H50 rate enhancement with FXa [3] is around 29 fold.

B4: K260A/R263A/K308A/R310A: ZPI helix H site quadruple mutant (protein, UniProt Q9UK55 22-444, looked up, variant K260A R263A K308A R310A)
Protein Z-dependent protease …: B1 Protein Z-dependent protease … with K260A, R263A, A293D, K308A, R310A
On to B4, for which, in the assay with FXa [1], the SI is reported as 4.0 ± 0.8 moles ZPI/mole FXa, the “ka,app × SI” value is on record as 4.5 ± 1.8 × 10^3 M^−1 s^−1, the “ka,app × SI relative to WT” value is reported as “(0.28)” and the “ka,app” value is reported as 1.1 ± 0.2 × 10^3 M^−1 s^−1. Moreover, in the assay with FXa [2], the SI was determined as 6.6 ± 0.4 moles ZPI/mole FXa, the “ka,app × SI” value is listed as 2.7 ± 0.4 × 10^7 M^−1 s^−1, the “ka,app × SI relative to WT” value was “(0.61)” and the “ka,app” value is on record as 4.1 ± 0.3 × 10^6 M^−1 s^−1. Besides, the PZ enhancement in the assay with FXa [2] is recorded as 6000. In the assay with FXa [3], the SI is recorded as 4.1 ± 0.6 moles ZPI/mole FXa, the “ka,app × SI” value was 7.6 ± 1.3 × 10^4 M^−1 s^−1, the “ka,app × SI relative to WT” value is on record as “(0.06)” and the “ka,app” value is 1.8 ± 0.1 × 10^4 M^−1 s^−1. Further, in the assay with FXa [3], the H50 rate enhancement is around 17 fold.

B5: WT: recombinant wild-type protein Z-dependent protease inhibitor (serpin A10) expressed in Escherichia coli (protein, UniProt Q9UK55 22-444, looked up)
Protein Z-dependent protease …: B1 Protein Z-dependent protease … with A293D
B5: in the assay with FXa [1], the SI was 2.8 ± 0.4 moles ZPI/mole FXa, the “ka,app × SI” value is given as 1.6 ± 0.3 × 10^4 M^−1 s^−1, the “ka,app × SI relative to WT” value is on record as “(1)” and the “ka,app” value is reported as 5.6 ± 0.3 × 10^3 M^−1 s^−1. In the assay with FXa [2], the SI was found to be 4.0 ± 0.3 moles ZPI/mole FXa, the “ka,app × SI” value is reported as 4.4 ± 0.3 × 10^7 M^−1 s^−1, the “ka,app × SI relative to WT” value is “(1.0)” and the “ka,app” value is listed as 10.9 ± 0.1 × 10^6 M^−1 s^−1. The PZ enhancement with FXa [2] came out at 2750. Besides, in the assay with FXa [3], the SI came out at 2.4 ± 0.1 moles ZPI/mole FXa, the “ka,app × SI” value is 1.2 ± 0.2 × 10^6 M^−1 s^−1, the “ka,app × SI relative to WT” value is “(1)” and the “ka,app” value is 5.1 ± 0.4 × 10^5 M^−1 s^−1. For the same molecule, the H50 rate enhancement in the assay with FXa [3] is given as around 75 fold.
